Test results taken from article PMC4611135.

What was measured:
[1] = target: DndE-His (Salmonella enterica serovar Cerro 87); assay: pull-down; co-expression of dndDE with His tag on DndE (pDndDEH) in E. coli BL21 (DE3); nickel purification, 15% SDS-PAGE
[2] = target: DndCDE complex (Salmonella enterica serovar Cerro 87); assay: SEC; DndCDE complex saturated with IscS, purified on Superdex 200; molar ratio by densitometry of the Coomassie-stained SDS-PAGE bands

Row | Substance | stoichiometry N [1] [molar ratio] | stoichiometry N [2] [molar ratio]
1 | DndD (natural protein) | 1 | 
2 | Strep-IscS (from UniProt P0A6B7 1-404) (natural protein) |  | 1
